± gives the uncertainty stated by the source.
Test: self-splicing fitness, log relative to wild type (ln ratio); higher = more splicing; Tetrahymena group I intron in knt gene, E. coli kanamycin selection, DiMSum; sequences stand for … in CUCUCU…GGAGGGAAAAGUUAUCAGGCAUGCACCUGGUAGCUAGUCUUUAAACCAAUAGAUUGCAUCGGUUUAAAAGGCAAGACCGUCAAAUUGCGGGAAAGGGGUCAACAGCCGUUCAGUACCAAGUCUCAGGGGAAACUUUGAGAUGGCCUUGCAAAGGGUAUGGUAAUAAGCUGACGGACAUGGUCCUAACCACGCAGCCAAGUCCUAAGUCAACAGAUCUUCUGUUGAUAUGGAUGCAGUUCACAGACUAAAUGUCGGUCGGGGAAGAUGUAUUCUUCUCAUAAGAUAUAGUCGGACCUCUCCUUAAUGGGAGCUAGCGGAUGAAGUGAUGCAACACUGGAGCCGCUGGGAACUAAUUUGUAUGCGAAAGUAUAUUGAUUAGUUUUGGAGUACUCGUGGUCG
Procedure, shortened: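 Colonies from six replicate transformations of E. coli BL21(DE3) were pooled and amplicon-sequenced on an Illumina HiSeq 2500. The library placed an intron with all eight P1ex-region nucleotides randomised inside the knt kanamycin-resistance gene on pET-22b(+), and cells grew overnight at 37°C or 30°C on LB agar with or without 25 μg/mL kanamycin (plus 100 μg/mL carbenicillin, 50 μM IPTG, 0.2% rhamnose). Fitness is the DiMSum error-weighted combination of wild-type-normalised replicate fold changes, kanamycin versus none.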

Sequence | self-splicing fitness (ln) (30 °C) | self-splicing fitness (ln) (37 °C)
UAGUAGCAAUAUUACGAGAU | -2.69 ± 0.13 | -2.32 ± 0.19
UAAUAGCAAUAUUACGAUAA | -3.33 ± 0.2 | -1.78 ± 0.16
GGACAGCAAUAUUACGCCAG | -2.17 ± 0.22 | -2.07 ± 0.35
AUUCAGCAAUAUUACGCUAU | -1.45 ± 0.079 | -0.637 ± 0.1
GUCCAGCAAUAUUACGAAGG | -1.34 ± 0.24 | -1.66 ± 0.28
UUGUAGCAAUAUUACGGAAG | -3.94 ± 0.33 | -1.7 ± 0.36
GCUGAGCAAUAUUACGAACA | -3.44 ± 0.36 | -2.89 ± 0.38
UGCGAGCAAUAUUACGAAAA | -1.24 ± 0.27 | 
GACAAGCAAUAUUACGUGUA | -1.56 ± 0.071 | -0.227 ± 0.078
UCGAAGCAAUAUUACGCCAA | -2.4 ± 0.27 | -2.2 ± 0.37
UUACAGCAAUAUUACGGGUU | -3.73 ± 0.12 | -2.34 ± 0.12
AGUCAGCAAUAUUACGCGCA | -0.326 ± 0.11 | 0.452 ± 0.17
GGUCAGCAAUAUUACGUCAC |  | -1.77 ± 0.39
GGUAAGCAAUAUUACGGCAG | -3.62 ± 0.43 | -2.49 ± 0.45
AGUUAGCAAUAUUACGAUCG | -0.446 ± 0.1 | -0.0837 ± 0.12
GCGCAGCAAUAUUACGCUGU | -3.56 ± 0.23 | -2.86 ± 0.34
CGAGAGCAAUAUUACGGUUG | -2.88 ± 0.14 | -1.21 ± 0.14
UGCCAGCAAUAUUACGCGUU | -1.67 ± 0.069 | -0.989 ± 0.082
GAGCAGCAAUAUUACGCUAG | -2.4 ± 0.14 | -1.53 ± 0.17
UUAGAGCAAUAUUACGAUCU | -2.45 ± 0.24 | -3.11 ± 0.3
ACCCAGCAAUAUUACGCCUG | -2.21 ± 0.12 | -3 ± 0.26
UGGUAGCAAUAUUACGUGUG | -1.29 ± 0.071 | -0.469 ± 0.082
GAGGAGCAAUAUUACGGUCC | -2.95 ± 0.16 | -0.994 ± 0.2
GGACAGCAAUAUUACGUACA | -1.06 ± 0.096 | 0.0922 ± 0.12
UAGUAGCAAUAUUACGAGGC | -3.45 ± 0.32 | 
ACAAAGCAAUAUUACGUGGG | -3.35 ± 0.13 | -2.47 ± 0.14
UCUAAGCAAUAUUACGACCC |  | -0.661 ± 0.44

Sequence | self-splicing fitness (ln) (30 °C) | self-splicing fitness (ln) (37 °C)
CCUUAGCAAUAUUACGCAAA |  | -2.89 ± 0.34
AAAAAGCAAUAUUACGGGCA | -0.543 ± 0.081 | -0.103 ± 0.088
CUCGAGCAAUAUUACGUCGG | -1.37 ± 0.15 | -0.674 ± 0.21
CGAGAGCAAUAUUACGAAAC | -2.91 ± 0.36 | -1.97 ± 0.48
GGUUAGCAAUAUUACGCGGA | -1.4 ± 0.31 | -1.34 ± 0.23
AGUCAGCAAUAUUACGAUGA | -0.22 ± 0.057 | -0.0826 ± 0.071
UAUGAGCAAUAUUACGUCAA |  | -2.59 ± 0.38
AGCGAGCAAUAUUACGAACU | -2.3 ± 0.42 | -1.17 ± 0.29
UUGGAGCAAUAUUACGAACG |  | -0.295 ± 0.28
CUUAAGCAAUAUUACGGUCC | -1.36 ± 0.29 | 
UCGCAGCAAUAUUACGAAGC | -3.52 ± 0.27 | -2.25 ± 0.25
GUACAGCAAUAUUACGUGAU | -2.88 ± 0.07 | -0.556 ± 0.07
UUAAAGCAAUAUUACGGAUG | -0.473 ± 0.074 | -0.418 ± 0.1
CGAUAGCAAUAUUACGUGGG | -2.61 ± 0.17 | -0.763 ± 0.16
UUCCAGCAAUAUUACGGCGC | -2.61 ± 0.14 | -0.177 ± 0.12
AACUAGCAAUAUUACGCUGG | -3.28 ± 0.4 | -2.34 ± 0.22
CAGUAGCAAUAUUACGUCCU | -3.2 ± 0.18 | -1.43 ± 0.14
CGCAAGCAAUAUUACGCUAC |  | -2.82 ± 0.48
CGAGAGCAAUAUUACGAUCG | -2.87 ± 0.43 | 
AAGCAGCAAUAUUACGGACC | -1.42 ± 0.14 | -0.369 ± 0.17
UGAGAGCAAUAUUACGACAU | -3.847 ± 0.037 | -2.82 ± 0.048
CAAAAGCAAUAUUACGCCGU | -2.08 ± 0.16 | -1.32 ± 0.18
GUGAAGCAAUAUUACGGCGC | -0.501 ± 0.17 | -0.89 ± 0.14
GAAAAGCAAUAUUACGUGCC | -1.69 ± 0.19 | -0.25 ± 0.22
GAUGAGCAAUAUUACGAUAU | -3.81 ± 0.21 | -2.58 ± 0.24
UAAGAGCAAUAUUACGUAAC | -5.23 ± 0.45 | -1.44 ± 0.18
UAUAAGCAAUAUUACGAGUU | -2.72 ± 0.15 | -1.11 ± 0.15

Sequence | self-splicing fitness (ln) (30 °C) | self-splicing fitness (ln) (37 °C)
CGGGAGCAAUAUUACGUCCU | -2.54 ± 0.25 | 
UGAAAGCAAUAUUACGUAAG | -0.503 ± 0.087 | -0.0639 ± 0.12
AACUAGCAAUAUUACGGAUC | -1.78 ± 0.17 | -1.37 ± 0.12
UACCAGCAAUAUUACGAGUC | -1.59 ± 0.12 | -1.24 ± 0.12
GAUAAGCAAUAUUACGGACC | -1.24 ± 0.25 | -1.4 ± 0.28
CCUGAGCAAUAUUACGUGUU | -4.7 ± 0.34 | -2.52 ± 0.17
UUGCAGCAAUAUUACGCUUA | -0.263 ± 0.12 | -0.0443 ± 0.13
GAUAAGCAAUAUUACGUUUA | -1.59 ± 0.12 | -0.982 ± 0.12
ACCCAGCAAUAUUACGAUCU | -1.34 ± 0.068 | -0.243 ± 0.084
UCUUAGCAAUAUUACGCGAG | -2.25 ± 0.17 | -2.92 ± 0.28
ACACAGCAAUAUUACGGCCA | -1.18 ± 0.12 | -1.17 ± 0.11
AGGUAGCAAUAUUACGAACG | -0.798 ± 0.016 | -0.207 ± 0.035
AUUAAGCAAUAUUACGUAGG | -2.34 ± 0.18 | -1.81 ± 0.29
GUGUAGCAAUAUUACGCGGC | -2.8 ± 0.29 | -0.745 ± 0.23
CCUUAGCAAUAUUACGGUCC | -3.5 ± 0.46 | -3.04 ± 0.35
GAACAGCAAUAUUACGAAUG | -2.42 ± 0.092 | -1.52 ± 0.096
UUACAGCAAUAUUACGCUCU | -1.01 ± 0.074 | -0.47 ± 0.087
CGAAAGCAAUAUUACGUCAU | -4.71 ± 0.36 | -0.631 ± 0.14
CCCUAGCAAUAUUACGACCG | -1.21 ± 0.2 | -2.17 ± 0.34
AAUAAGCAAUAUUACGCACG | -1.06 ± 0.11 | -0.851 ± 0.14
GCCAAGCAAUAUUACGCCAA | -2.4 ± 0.23 | -1.19 ± 0.15
GGUGAGCAAUAUUACGCAAG |  | 0.418 ± 0.23
ACCCAGCAAUAUUACGGGGA | -1.02 ± 0.053 | -0.524 ± 0.065
GUCAAGCAAUAUUACGUAGC | -1.55 ± 0.12 | -1.07 ± 0.15
CGAUAGCAAUAUUACGGCGA | -1.5 ± 0.25 | -1.11 ± 0.16
